Numbering of substitutions follows the chain as printed. Names may count otherwise.
T1: TNFR1 (Homo sapiens, UniProt P19438)
T1 chain: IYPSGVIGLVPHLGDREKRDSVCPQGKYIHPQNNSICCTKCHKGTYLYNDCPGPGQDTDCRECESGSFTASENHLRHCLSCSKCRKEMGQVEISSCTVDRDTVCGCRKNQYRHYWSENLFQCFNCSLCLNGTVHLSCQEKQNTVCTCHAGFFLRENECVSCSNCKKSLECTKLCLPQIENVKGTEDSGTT

B1: E33L (designed binder)
chain: MTLQELLREEALRRAEAEAFRYALELLAEKFPLQKEYLLDLAEEIESQIRSLSGVDVEDVRKFLDKEWAWVKELLAEHPAELAEVEAARAARLAELRAEVEAKVAA
B2: H78Q (designed binder)
chain: B1 chain with L33E, H78Q
B3: V60H (designed binder)
chain: B1 chain with L33E, V60H
B4: S47G (designed binder)
chain: B1 chain with L33E, S47G
B5: R21I (designed binder)
chain: B1 chain with R21I, L33E
B6: L75G (designed binder)
chain: B1 chain with L33E, L75G
B7: E33N (designed binder)
chain: B1 chain with L33N
B8: K35S (designed binder)
chain: B1 chain with L33E, K35S
B9: A80H (designed binder)
chain: B1 chain with L33E, A80H
B10: R50K (designed binder)
chain: B1 chain with L33E, R50K
B11: A102P (designed binder)
chain: B1 chain with L33E, A102P
B12: L41R (designed binder)
chain: B1 chain with L33E, L41R
B13: P79L (designed binder)
chain: B1 chain with L33E, P79L
B14: E58F (designed binder)
chain: B1 chain with L33E, E58F
B15: A11W (designed binder)
chain: B1 chain with A11W, L33E
B16: R61H (designed binder)
chain: B1 chain with L33E, R61H
B17: F63W (designed binder)
chain: B1 chain with L33E, F63W
B18: E43T (designed binder)
chain: B1 chain with L33E, E43T
B19: V85A (designed binder)
chain: B1 chain with L33E, V85A
B20: K35I (designed binder)
chain: B1 chain with L33E, K35I
B21: Y37S (designed binder)
chain: B1 chain with L33E, Y37S
B22: E95V (designed binder)
chain: B1 chain with L33E, E95V
B23: R89P (designed binder)
chain: B1 chain with L33E, R89P
B24: M1D (designed binder)
chain: B1 chain with M1D, L33E
B25: L6C (designed binder)
chain: B1 chain with L6C, L33E
B26: F31Y (designed binder)
chain: B1 chain with F31Y, L33E
B27: K30I (designed binder)
chain: B1 chain with K30I, L33E
B28: L7S (designed binder)
chain: B1 chain with L7S, L33E
B29: F31E (designed binder)
chain: B1 chain with F31E, L33E
B30: R97I (designed binder)
chain: B1 chain with L33E, R97I
B31: A15H (designed binder)
chain: B1 chain with A15H, L33E
B32: T2A (designed binder)
chain: B1 chain with T2A, L33E
B33: A102Y (designed binder)
chain: B1 chain with L33E, A102Y
B34: A76H (designed binder)
chain: B1 chain with L33E, A76H
B35: I49T (designed binder)
chain: B1 chain with L33E, I49T
B36: V85K (designed binder)
chain: B1 chain with L33E, V85K
B37: A91K (designed binder)
chain: B1 chain with L33E, A91K
B38: K62C (designed binder)
chain: B1 chain with L33E, K62C
B39: A94L (designed binder)
chain: B1 chain with L33E, A94L
B40: W70R (designed binder)
chain: B1 chain with L33E, W70R
B41: L38T (designed binder)
chain: B1 chain with L33E, L38T
B42: V57D (designed binder)
chain: B1 chain with L33E, V57D
B43: K30L (designed binder)
chain: B1 chain with K30L, L33E

Target: T1, TNFR1
Test: yeast display SC50

Binder	apparent Kd (screen) [nM]
B1	0.653
B2	0.869
B3	1.27
B4	1.27
B5	0.49
B6	1.4
B7	0.539
B8	0.653
B9	0.869
B10	0.539
B11	0.956
B12	15.2
B13	0.718
B14	2.73
B15	0.405
B16	1.4
B17	0.869
B18	0.79
B19	0.79
B20	2.48
B21	12.5
B22	0.49

Binder	apparent Kd (screen) [nM]
B23	24.4
B24	0.446
B25	2.05
B26	0.593
B27	0.49
B28	13.8
B29	0.49
B30	0.539
B31	0.539
B32	0.79
B33	0.653
B34	0.79
B35	0.539
B36	0.653
B37	0.49
B38	0.49
B39	0.956
B40	12.5
B41	26.9
B42	3.99
B43	0.539
